Results: the nanobody polyreactivity screen of Harvey et al. (2022)

experiment: yeast display, Sf9 membrane polyspecificity reagent, FACS + sequencing; frameworks hold sequencing errors
Procedure, shortened: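 A synthetic nanobody library was expressed on Saccharomyces cerevisiae BJ5465 by galactose induction for 36–48 hours. The library was stained for 1 hour at 4 °C with 10% biotinylated, detergent-solubilized Sf9 membrane reagent and enriched with streptavidin microbeads before FACS. Low and high (top ~1%) gates were set on anti-HA fluorescence for expression and streptavidin fluorescence for reagent binding, and each polyreactivity label reflects the gate of origin.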

Sequence	polyreactivity (PSR sort gate)
QVQLVESGGGLVQAGGSLRLSCAASGRTIRYYTMGWYRQAPGKERELVATIRRGRTTYYADSVKGRFTISRDNEKNTVYLQMYSLKPEDTAVYYCAADFPSAEVDYWGQGTQVTVSS	low polyreactivity
QVQLVESGGGLVQAGGSLRLSCAASGRTIVYNAMGWYRQAPGKERELVAAITSRGGSTHYADSVKGRFTISRDNAKNTVYLQMNSLKPEDTAVYYCAADFLSPAYRPSWYRFDYWGQGTQVTVSS	low polyreactivity
QVQLVESGGGLVQAGGSLRLSCAASGRTIWWYAMGWYRQAPGKERELVADITWIGGSTYYADSVKGRFTISRDNAKNTVYLQMNSLKPEDTAVYYCATDKDDVSDLGKDYAYFEYDYWGQGTQVTVSS	low polyreactivity
QVQLVESGGGLVQAGGSLRLSCAASGRTIWYNAMGWYRQAPGKERELVAVISSGAITYYADSVKGRFTFSRDNGKNTVYLQMNSLKPEDTAFYYCAARSYLSLIDYWGQGTQVNVSS	high polyreactivity
QVQLVESGGGLVQAGGSLRLSCAASGRTIYQNAMGWYRQAPGKEREFVAAITGGTGSTHYADSVKGRFTISRDNAKITVYLQMNSLKPEDSAVYYCATRYLFGFSRYDYWGQGTQVTVSS	low polyreactivity
QVQLVESGGGLVQAGGSLRLSCAASGRTIYRYGMGWYRQAPGKERELVADITWRGDSTYYADSVKGRFTISRDNAKNTVYLQMNCLKPEDTAVYYCATRPRGYRWGKLYDYWGQGTQVTVSS	high polyreactivity
QVQLVESGGGLVQAGGSLRLSCAASGRTIYTYAMGWYRQAPGKERELVAAITKRGGSTYYADSVKGRFTISRDNAQNTVYLQMNSLKPEDTAVYYCNKELATARGQSLYRTYSGYGYWGQGTQVTVSS	high polyreactivity
QVQLVESGGGLVQAGGSLRLSCAASGRTIYYYAMGLYRQAPGKERELVAAISSSGSTTYYADSVKGRFTISRDNAKNTVYLQMNSLKPEDTAVYYCAASYVYRVDDDYWGLGTQVTVSS	low polyreactivity
QVQLVESGGGLVQAGGSLRLSCAASGRTIYYYAMGWYRQAPGKEREFVAAISWHGGSTYYADSVKGRFTISRDNAKNNVYLQMNSLKPEDTAVYYCAADIYLRGFHYDYWGQGTQVTVSS	low polyreactivity
QVQLVESGGGLVQAGGSLRLSCAASGRTIYYYAMGWYRQAPGKEREFVAAISWHGGSTYYADSVKGRFTISRDNAKNTVYLQMNSLKPEDTAVYYCAAERYDRVGFDYWGQGTQVTVSS	low polyreactivity
QVQLVESGGGLVQAGGSLRLSCAASGRTLAENAMGWYRQAPGKERELVAAISSIGGRTYYADSVKGRFTISRDNAKNTVYLQMNSLKPEDTAVYYCAATLRTKSARYNYWGQGTQVTVSS	high polyreactivity
QVQLVESGGGLVQAGGSLRLSCAASGRTLATYAMGWYRQAPGKERELVAAISTSGTRTYYADSVKGRFTISRDNAKNTVYLQMNSLKPEDTAVYYCNAGPGYDYWGHGTQVTVSS	high polyreactivity
QVQLVESGGGLVQAGGSLRLSCAASGRTLDVYAMGWSRQAPGKERELVASITSSGARTYYADSVKGRFTISRDNAKNTVYLQMNSLKPEDTAVYYCAARVYRYSASRAYDYWGQGSQVTVSS	high polyreactivity
QVQLVESGGGLVQAGGSLRLSCAASGRTLENYAMGWSRQAPGKERELVATINGRSGNTYYADSVKGRFTLSRDNAKNTVYLQMNSLKPEDTAVYYCNAYYEGYYTVGYDYWGQGTQVTVSS	high polyreactivity
QVQLVESGGGLVQAGGSLRLSCAASGRTLGFYAMGWYRQAPGKEREFVAAISSSVGRTYYADSVKGRFTISRDNAKNTVYLQMNSLKPEDTAVYYCAADRTDTSNYWGQGTQVTVSS	high polyreactivity
QVQLVESGGGLVQAGGSLRLSCAASGRTLGHNAMGWYRPAPGKERELVAAITSRGGTTYADSVKGRFTISRDNAKKTVYLQMNSLKPEETAVYYCAARVSGSRKYYYWGQGTQVTVSS	high polyreactivity
QVQLVESGGGLVQAGGSLRLSCAASGRTLGHNAMGWYRQAPGKERELVAAITSRGGTTYADSVKGRFTISRDNAKNTVYLQMNSLKPEDTAVYYCAARGYAYSRYYYWGQGTQVTVSS	high polyreactivity
